Results as given in patent US20180155451A1 (published 2018).

T1: FcγRIIb (human, UniProt P31994 43-217)
T1 construct: extracellular domain; also called FcgRIIb; 2b; not shown: His tag at the C terminus
T1 sequence (looked up): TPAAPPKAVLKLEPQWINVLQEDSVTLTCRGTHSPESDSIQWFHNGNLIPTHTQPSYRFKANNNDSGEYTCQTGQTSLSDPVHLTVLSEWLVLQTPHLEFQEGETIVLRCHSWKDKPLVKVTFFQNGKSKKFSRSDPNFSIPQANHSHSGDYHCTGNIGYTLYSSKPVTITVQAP

T2: FcγRIIb (human, UniProt P31994 43-217)
T2 construct: extracellular domain; Soluble extracellular domain with C-terminal His tag, used as analyte in Biacore; also called FcgRIIb; 2b; not shown: His tag attached to the C terminus
T2 sequence (looked up): T1 sequence (looked up)

B1: GpH7-A5/GpH7-B3 variant D265_01G/GpL16-k0 (antibody, human IgG1, kappa)
heavy 1: not shown
heavy 2: not shown
light: DIVMTQSPLSLPVTPGEPASISCQASESLVHSNRNTYLHWYLQKPGQSPQLLIYKVSNRFSGVPDRFSGSGSGTDFTLKISRVEAEDVGVYYCSQNTHVPPTFGQGTKVEIERTVAAPSVFIFPPSDEQLKSGTASVVCLLNNFYPREAKVQWKVDNALQSGNSQESVTEQDSKDSTYSLSSTLTLSKADYEKHKVYACEVTHQGLSSPVTKSFNRGEC
notes: He Ab: mutation only in the GpH7-B3 H chain; EU numbering; also called He Ab
B2: GpH7-A5/GpH7-B3 variant D265_15Y/GpL16-k0 (antibody, human IgG1, kappa)
heavy 1: not shown
heavy 2: not shown
light: B1 light
notes: as for B1
B3: GpH7-A5/GpH7-B3 variant D265_07I/GpL16-k0 (antibody, human IgG1, kappa)
heavy 1: not shown
heavy 2: not shown
light: B1 light
notes: as for B1
B4: GpH7-A5/GpH7-B3 variant D265_03V/GpL16-k0 (antibody, human IgG1, kappa)
heavy 1: not shown
heavy 2: not shown
light: B1 light
notes: as for B1
B5: GpH7-A5/GpH7-B3 variant D265_16H/GpL16-k0 (antibody, human IgG1, kappa)
heavy 1: not shown
heavy 2: not shown
light: B1 light
notes: as for B1
B6: GpH7-A5/GpH7-B3 variant D265_13S/GpL16-k0 (antibody, human IgG1, kappa)
heavy 1: not shown
heavy 2: not shown
light: B1 light
notes: as for B1
B7: GpH7-A5/GpH7-B3 variant D265_02A/GpL16-k0 (antibody, human IgG1, kappa)
heavy 1: not shown
heavy 2: not shown
light: B1 light
notes: as for B1
B8: GpH7-A5/GpH7-B3 variant D265_11K/GpL16-k0 (antibody, human IgG1, kappa)
heavy 1: not shown
heavy 2: not shown
light: B1 light
notes: as for B1
B9: GpH7-A5/GpH7-B3 variant D265_14T/GpL16-k0 (antibody, human IgG1, kappa)
heavy 1: not shown
heavy 2: not shown
light: B1 light
notes: as for B1
B10: GpH7-A5/GpH7-B3 variant D265_10E/GpL16-k0 (antibody, human IgG1, kappa)
heavy 1: not shown
heavy 2: not shown
light: B1 light
notes: as for B1
B11: GpH7-A5/GpH7-B3 variant D265_04F/GpL16-k0 (antibody, human IgG1, kappa)
heavy 1: not shown
heavy 2: not shown
light: B1 light
notes: as for B1
B12: GpH7-A5/GpH7-B3 variant D265_06M/GpL16-k0 (antibody, human IgG1, kappa)
heavy 1: not shown
heavy 2: not shown
light: B1 light
notes: as for B1
B13: GpH7-A5/GpH7-B3 variant D265_08L/GpL16-k0 (antibody, human IgG1, kappa)
heavy 1: not shown
heavy 2: not shown
light: B1 light
notes: as for B1
B14: GpH7-A5/GpH7-B3 variant D265_12R/GpL16-k0 (antibody, human IgG1, kappa)
heavy 1: not shown
heavy 2: not shown
light: B1 light
notes: as for B1
B15: GpH7-A5/GpH7-B3 variant V266_08L/GpL16-k0 (antibody, human IgG1, kappa)
heavy 1: not shown
heavy 2: not shown
light: B1 light
notes: Heterodimerized IgG1; mutation in the GpH7-B3 H chain only; also called He Ab
B16: GpH7-A5/GpH7-B3 variant P238_04F/GpL16-k0 (antibody, human IgG1, kappa)
heavy 1: not shown
heavy 2: not shown
light: B1 light
notes: as for B15
B17: GpH7-A5/GpH7-B3 variant S267_07I/GpL16-k0 (antibody, human IgG1, kappa)
heavy 1: not shown
heavy 2: not shown
light: B1 light
notes: as for B15
B18: GpH7-A5/GpH7-B3 variant S239_08L/GpL16-k0 (antibody, human IgG1, kappa)
heavy 1: not shown
heavy 2: not shown
light: B1 light
notes: as for B15
B19: GpH7-A5/GpH7-B3 variant S239_10E/GpL16-k0 (antibody, human IgG1, kappa)
heavy 1: not shown
heavy 2: not shown
light: B1 light
notes: as for B15
B20: GpH7-A5/GpH7-B3 variant V266_06M/GpL16-k0 (antibody, human IgG1, kappa)
heavy 1: not shown
heavy 2: not shown
light: B1 light
notes: as for B15
B21: GpH7-A5/GpH7-B3 variant S267_06M/GpL16-k0 (antibody, human IgG1, kappa)
heavy 1: not shown
heavy 2: not shown
light: B1 light
notes: as for B15
B22: GpH7-A5/GpH7-B3 variant V266_07I/GpL16-k0 (antibody, human IgG1, kappa)
heavy 1: not shown
heavy 2: not shown
light: B1 light
notes: as for B15
B23: GpH7-A5/GpH7-B3 variant S267_09D/GpL16-k0 (antibody, human IgG1, kappa)
heavy 1: not shown
heavy 2: not shown
light: B1 light
notes: as for B15
B24: GpH7-A5/GpH7-B3 variant P238_08L/GpL16-k0 (antibody, human IgG1, kappa)
heavy 1: not shown
heavy 2: not shown
light: B1 light
notes: as for B15
B25: GpH7-A5/GpH7-B3 variant L234_09D/GpL16-k0 (antibody, human IgG1, kappa)
heavy 1: not shown
heavy 2: not shown
light: B1 light
notes: as for B15
B26: GpH7-A5/GpH7-B3 variant S267_10E/GpL16-k0 (antibody, human IgG1, kappa)
heavy 1: not shown
heavy 2: not shown
light: B1 light
notes: as for B15
B27: GpH7-A5/GpH7-B3 variant L235_09D/GpL16-k0 (antibody, human IgG1, kappa)
heavy 1: not shown
heavy 2: not shown
light: B1 light
notes: as for B15
B28: GpH7-A5/GpH7-B3 variant P238_10E/GpL16-k0 (antibody, human IgG1, kappa)
heavy 1: not shown
heavy 2: not shown
light: B1 light
notes: as for B15
B29: GpH7-A5/GpH7-B3 variant V266_12R/GpL16-k0 (antibody, human IgG1, kappa)
heavy 1: not shown
heavy 2: not shown
light: B1 light
notes: as for B15
B30: GpH7-A5/GpH7-B3 variant S267_02A/GpL16-k0 (antibody, human IgG1, kappa)
heavy 1: not shown
heavy 2: not shown
light: B1 light
notes: as for B15
B31: GpH7-A5/GpH7-B3 variant S267_03V/GpL16-k0 (antibody, human IgG1, kappa)
heavy 1: not shown
heavy 2: not shown
light: B1 light
notes: as for B15
B32: GpH7-A5/GpH7-B3 variant L235_20W/GpL16-k0 (antibody, human IgG1, kappa)
heavy 1: not shown
heavy 2: not shown
light: B1 light
notes: as for B15
B33: GpH7-A5/GpH7-B3 variant P238_09D/GpL16-k0 (antibody, human IgG1, kappa)
heavy 1: not shown
heavy 2: not shown
light: B1 light
notes: as for B15
B34: GpH7-A5/GpH7-B3 variant P238_06M/GpL16-k0 (antibody, human IgG1, kappa)
heavy 1: not shown
heavy 2: not shown
light: B1 light
notes: as for B15
B35: GpH7-A5/GpH7-B3 variant L235_15Y/GpL16-k0 (antibody, human IgG1, kappa)
heavy 1: not shown
heavy 2: not shown
light: B1 light
notes: as for B15
B36: GpH7-A5/GpH7-B3 variant S239_01G/GpL16-k0 (antibody, human IgG1, kappa)
heavy 1: not shown
heavy 2: not shown
light: B1 light
notes: as for B15
B37: GpH7-A5/GpH7-B3 variant S239_09D/GpL16-k0 (antibody, human IgG1, kappa)
heavy 1: not shown
heavy 2: not shown
light: B1 light
notes: as for B15
B38: GpH7-A5/GpH7-B3 variant S267_19Q/GpL16-k0 (antibody, human IgG1, kappa)
heavy 1: not shown
heavy 2: not shown
light: B1 light
notes: as for B15
B39: GpH7-A5/GpH7-B3 variant P238_15Y/GpL16-k0 (antibody, human IgG1, kappa)
heavy 1: not shown
heavy 2: not shown
light: B1 light
notes: as for B15

What follows are binders tested against T3, FcγRIa (human, UniProt P12314 16-292) (assay: SPR; He/Con_1a divided by He/Con_2b (FcγRIIb as reference)).
T3 construct: extracellular domain; also called FcgRI; 1a; not shown: His tag at the C terminus
T3 sequence (P12314 16-292): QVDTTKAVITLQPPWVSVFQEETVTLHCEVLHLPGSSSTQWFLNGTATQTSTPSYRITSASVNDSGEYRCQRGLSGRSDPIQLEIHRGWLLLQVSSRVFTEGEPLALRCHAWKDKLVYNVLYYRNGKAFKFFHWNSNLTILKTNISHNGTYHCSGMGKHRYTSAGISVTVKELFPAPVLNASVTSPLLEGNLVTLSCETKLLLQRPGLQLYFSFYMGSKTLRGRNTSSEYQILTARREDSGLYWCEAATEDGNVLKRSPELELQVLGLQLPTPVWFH

Ia/IIb He_1a/2b [ratio] | Binder
4.95 | B1
73.5 | B2
41.2 | B3
17.3 | B4
2.23 | B5
6.07 | B6
4.25 | B7
2.9 | B8
4.9 | B9
2.66 | B10
16.8 | B11
7.57 | B12
12.4 | B13
2.96 | B14

Each binder was assayed against T4, FcγRIa (human, UniProt P12314 16-292) (assay: SPR (Biacore); He/Con_1a divided by He/Con_2b (FcγRIa against FcγRIIb)).
T4 construct: extracellular domain; Soluble extracellular domain with C-terminal His tag, used as analyte in Biacore; also called FcgRI; 1a; not shown: His tag attached to the C terminus
T4 sequence (P12314 16-292): as above

Ia/IIb He_1a/2b [ratio] | Binder
0.42 | B15
0.32 | B16
0.52 | B17
0.71 | B18
0.58 | B19
0.4 | B20
0.51 | B21
0.65 | B22
0.35 | B23
0.49 | B24
0.65 | B25
0.28 | B26
0.8 | B27
0.44 | B28
-55.6 | B29
0.45 | B30
0.55 | B31
0.63 | B32
0.43 | B33
0.59 | B34
0.65 | B35
0.7 | B36
0.49 | B37
0.47 | B38
0.46 | B39

What follows are binders tested against T3, FcγRIa (assay: SPR (Biacore), captured antibody, soluble FcγR; relative to GpH7-A5/GpH7-B3/GpL16-k0).

He/Con_1a | Binder
79.9 relative, HeCon Ab = 100 | B1
44.3 relative, HeCon Ab = 100 | B2
54.4 relative, HeCon Ab = 100 | B3
55.7 relative, HeCon Ab = 100 | B4
85.4 relative, HeCon Ab = 100 | B5
68.7 relative, HeCon Ab = 100 | B6
84.5 relative, HeCon Ab = 100 | B7
43.2 relative, HeCon Ab = 100 | B8
78.5 relative, HeCon Ab = 100 | B9
101 relative, HeCon Ab = 100 | B10
53 relative, HeCon Ab = 100 | B11
75.7 relative, HeCon Ab = 100 | B12
56.8 relative, HeCon Ab = 100 | B13
44.3 relative, HeCon Ab = 100 | B14

The binders below were run against T1, FcγRIIb in the same assay as above.

He/Con_2b | Binder
16.1 relative, HeCon Ab = 100 | B1
0.6 relative, HeCon Ab = 100 | B2
1.3 relative, HeCon Ab = 100 | B3
3.2 relative, HeCon Ab = 100 | B4
38.3 relative, HeCon Ab = 100 | B5
11.3 relative, HeCon Ab = 100 | B6
19.9 relative, HeCon Ab = 100 | B7
14.9 relative, HeCon Ab = 100 | B8
16 relative, HeCon Ab = 100 | B9
38.2 relative, HeCon Ab = 100 | B10
3.2 relative, HeCon Ab = 100 | B11
10 relative, HeCon Ab = 100 | B12
4.6 relative, HeCon Ab = 100 | B13
15 relative, HeCon Ab = 100 | B14

What follows are binders tested against T4, FcγRIa (assay: SPR (Biacore), antibody captured on antigen peptide, FcγR as analyte; relative to GpH7-A5/GpH7-B3/GpL16-k0 = 100).

He/Con_1a | Binder
98.1 % of control | B15
101 % of control | B16
100 % of control | B17
99.8 % of control | B18
105 % of control | B19
99.7 % of control | B20
106 % of control | B21
99.3 % of control | B22
110 % of control | B23
101 % of control | B24
97.8 % of control | B25
106 % of control | B26
84.8 % of control | B27
102 % of control | B28
59.2 % of control | B29
109 % of control | B30
106 % of control | B31
92.8 % of control | B32
96 % of control | B33
102 % of control | B34
97.1 % of control | B35
101 % of control | B36
101 % of control | B37
102 % of control | B38
101 % of control | B39

The binders below were run against T2, FcγRIIb in the same assay as above.

He/Con_2b | Binder
236 % of control | B15
312 % of control | B16
192 % of control | B17
140 % of control | B18
181 % of control | B19
251 % of control | B20
210 % of control | B21
152 % of control | B22
310 % of control | B23
204 % of control | B24
150 % of control | B25
379 % of control | B26
106 % of control | B27
232 % of control | B28
-1.1 % of control | B29
243 % of control | B30
192 % of control | B31
147 % of control | B32
221 % of control | B33
174 % of control | B34
149 % of control | B35
144 % of control | B36
206 % of control | B37
218 % of control | B38
218 % of control | B39
